Assay results: US20220177587A1, “METHODS AND USES OF VARIANT CD80 FUSION PROTEINS AND RELATED CONSTRUCTS” (Alpine Immune Sciences, Inc., priority 2018, published 2022)

Legend:
[1] = biological target: CD28 (human) (UniProt P10747)
[2] = biological target: PD-L1 (human) (UniProt Q9NZQ7)
Target sequence in this assay (Q9NZQ7 19-290): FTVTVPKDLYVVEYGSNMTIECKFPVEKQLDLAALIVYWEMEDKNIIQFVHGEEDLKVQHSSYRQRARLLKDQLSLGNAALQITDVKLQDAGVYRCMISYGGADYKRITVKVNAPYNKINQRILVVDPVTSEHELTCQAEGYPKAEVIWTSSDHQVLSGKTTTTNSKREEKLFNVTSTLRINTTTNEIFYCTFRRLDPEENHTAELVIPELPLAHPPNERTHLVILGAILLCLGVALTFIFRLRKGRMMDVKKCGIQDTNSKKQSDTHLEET

[3] = biological target: CD28 (human) (UniProt P10747); remark: listed apart in the source
[4] = biological target: CD28 (human) (UniProt P10747); experiment: flow cytometry, Expi293F cells transfected with CD28
[5] = biological target: human CTLA-4 (human) (UniProt P16410); experiment: flow cytometry, Expi293F cells transfected with CTLA-4
[6] = biological target: CD28 (human) (UniProt P10747); experiment: flow cytometry, Jurkat/IL2 reporter cells (endogenous CD28)
[7] = biological target: PD-L1 (human) (UniProt Q9NZQ7); experiment: flow cytometry, Expi293F cells transfected with PD-L1
[8] = biological target: CD28 (human) (UniProt P10747); experiment: flow cytometry, Jurkat cells (CD28)
[9] = biological target: CD28 (human) (UniProt P10747); experiment: flow cytometry, Jurkat cells (CD28); remark: listed apart in the source
[10] = biological target: CD28 (human) (UniProt P10747); experiment: flow cytometry, Jurkat cells (CD28); remark: listed apart in the source
[11] = biological target: human CTLA-4 (human) (UniProt P16410); experiment: flow cytometry, CHO cells expressing CTLA4
Target sequence in this assay (P16410 36-223): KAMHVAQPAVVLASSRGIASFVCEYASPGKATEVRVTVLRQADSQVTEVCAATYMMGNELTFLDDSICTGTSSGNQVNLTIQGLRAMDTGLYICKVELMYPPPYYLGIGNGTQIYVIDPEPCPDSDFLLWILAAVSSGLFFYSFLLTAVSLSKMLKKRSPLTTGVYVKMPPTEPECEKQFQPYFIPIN

[12] = biological target: PD-L1 (human) (UniProt Q9NZQ7); experiment: flow cytometry, CHO cells expressing PD-L1
Target sequence in this assay (Q9NZQ7 19-290): as the sequence (Q9NZQ7 19-290) above

[13] = biological target: human CTLA-4 (human) (UniProt P16410); experiment: flow cytometry, CHO cells stably expressing CTLA4
Target sequence in this assay (P16410 36-223): as the sequence (P16410 36-223) above

[14] = biological target: PD-L1 (human) (UniProt Q9NZQ7); experiment: flow cytometry, CHO cells stably expressing PD-L1
Target sequence in this assay (Q9NZQ7 19-290): as the sequence (Q9NZQ7 19-290) above

[15] = biological target: human CTLA-4 (human) (UniProt P16410); experiment: flow cytometry, CHO cells stably expressing CTLA4; remark: listed apart in the source
Target sequence in this assay (P16410 36-223): as the sequence (P16410 36-223) above

[16] = biological target: PD-L1 (human) (UniProt Q9NZQ7); experiment: flow cytometry, CHO cells stably expressing PD-L1; remark: listed apart in the source
Target sequence in this assay (Q9NZQ7 19-290): as the sequence (Q9NZQ7 19-290) above

[17] = biological target: human CTLA-4 (human) (UniProt P16410); experiment: flow cytometry, CHO cells stably expressing CTLA4; remark: listed apart in the source
Target sequence in this assay (P16410 36-223): as the sequence (P16410 36-223) above

[18] = biological target: PD-L1 (human) (UniProt Q9NZQ7); experiment: flow cytometry, CHO cells stably expressing PD-L1; remark: listed apart in the source
Target sequence in this assay (Q9NZQ7 19-290): as the sequence (Q9NZQ7 19-290) above

[19] = biological target: human CTLA-4 (huCTLA4), on stably transduced CHO cells (human) (UniProt P16410); experiment: flow cytometry on CHO cells stably expressing huCTLA4, 33.3 nM Fc fusion, PE anti-human Fc
[20] = biological target: human PD-L1 (huPD-L1), on stably transduced CHO cells (human) (UniProt Q9NZQ7); experiment: flow cytometry on CHO cells stably expressing huPD-L1, 33.3 nM Fc fusion, PE anti-human Fc
[21] = biological target: CD28, endogenously expressed on Jurkat/IL2 reporter cells (human) (UniProt P10747); experiment: flow cytometry on Jurkat/IL2 reporter cells (endogenous CD28), 33.3 nM Fc fusion, PE anti-human Fc
[22] = biological target: human CTLA-4 (human) (UniProt P16410); experiment: flow cytometry, CHO cells expressing huCTLA4
Target sequence in this assay (P16410 36-223): as the sequence (P16410 36-223) above

[23] = biological target: PD-L1 (human) (UniProt Q9NZQ7); experiment: flow cytometry, CHO cells expressing huPD-L1
Target sequence in this assay (Q9NZQ7 19-290): as the sequence (Q9NZQ7 19-290) above

CD80 WT IgV-Fc (Fc fusion), sequence (chain): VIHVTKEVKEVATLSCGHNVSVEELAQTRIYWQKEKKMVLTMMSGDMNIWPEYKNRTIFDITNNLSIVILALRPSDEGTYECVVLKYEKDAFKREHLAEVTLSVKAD
human PD-L1 (huPD-L1), on stably transduced CHO cells (human), sequence (Q9NZQ7 19-290): as the sequence (Q9NZQ7 19-290) above
human CTLA-4 (huCTLA4), on stably transduced CHO cells (human), sequence (P16410 36-223): as the sequence (P16410 36-223) above

CD80 E35D/M47I IgV-Fc (effector) (Fc fusion)
Jurkat/IL2 reporter RLU at 50 nM, K562/OKT3/PD-L1 aAPC [1]: 5700 RLU | Jurkat/IL2 reporter RLU at 50 nM, K562/OKT3 aAPC without PD-L1 [1]: 7140 RLU | Jurkat/IL2 reporter RLU at 50 nM, K562/OKT3/PD-L1 aAPC [2]: 5700 RLU | IL-2 release, primary T cells + K562/OKT3 (No PD-L1), 100 nM [3]: 27200

CD80 M38T/L70Q/E77G/A91G/I118V/T120S/T130A/N152T ECD-Fc (Fc fusion)
MFI [4]: 61 MFI

CD80 E23G/A26S/E35D/T62N/A71D/L72V/L85M IgV-Fc (effector) (Fc fusion)
Jurkat/IL2 reporter RLU at 50 nM, K562/OKT3/PD-L1 aAPC [1]: 4140 RLU | Jurkat/IL2 reporter RLU at 50 nM, K562/OKT3 aAPC without PD-L1 [1]: 7860 RLU | Jurkat/IL2 reporter RLU at 50 nM, K562/OKT3/PD-L1 aAPC [2]: 4140 RLU | IL-2 release, primary T cells + K562/OKT3 (No PD-L1), 100 nM [3]: 27000

CD80 E35G/K54E/A71D/L72P IgV-Fc (effector) (Fc fusion)
Jurkat/IL2 reporter RLU at 50 nM, K562/OKT3/PD-L1 aAPC [1]: 805 RLU | Jurkat/IL2 reporter RLU at 50 nM, K562/OKT3 aAPC without PD-L1 [1]: 1510 RLU | Jurkat/IL2 reporter RLU at 50 nM, K562/OKT3/PD-L1 aAPC [2]: 805 RLU

CD80 E35D/M47I/L70M IgV-Fc (effector) (Fc fusion)
Jurkat/IL2 reporter RLU at 50 nM, K562/OKT3/PD-L1 aAPC [1]: 3870 RLU | Jurkat/IL2 reporter RLU at 50 nM, K562/OKT3 aAPC without PD-L1 [1]: 5780 RLU | Jurkat/IL2 reporter RLU at 50 nM, K562/OKT3/PD-L1 aAPC [2]: 3870 RLU | IL-2 release, primary T cells + K562/OKT3 (No PD-L1), 100 nM [3]: 25300

CD80 E35D/M47L IgV-Fc (effector) (Fc fusion)
Jurkat/IL2 reporter RLU at 50 nM, K562/OKT3/PD-L1 aAPC [1]: 5040 RLU | Jurkat/IL2 reporter RLU at 50 nM, K562/OKT3 aAPC without PD-L1 [1]: 8680 RLU | Jurkat/IL2 reporter RLU at 50 nM, K562/OKT3/PD-L1 aAPC [2]: 5040 RLU | IL-2 release, primary T cells + K562/OKT3 (No PD-L1), 100 nM [3]: 26800

CD80 L65H/D90G/T110A/F116L ECD-Fc (Fc fusion)
MFI [4]: 33 MFI | MFI [5]: 121 MFI

CD80 R29H/E52G/D90N/I118V/T120S/T130A ECD-Fc (Fc fusion)
MFI [4]: 66 MFI | MFI [5]: 141 MFI

variant CD80 IgV-Fc S15P/Q33L/E35D/M47L/L85Q (Fc fusion)
MFI at 33.3 nM [6]: 266 MFI

CD80 V20L/L70Q/A91S/I118V/T120S/T130A ECD-Fc (Fc fusion)
MFI [4]: 105 MFI | MFI [7]: 9 MFI | parental ratio [7]: 0.13 | MFI [5]: 200 MFI | parental ratio [5]: 0.96

CD80 L70Q/A91G/N144D ECD-Fc (Fc fusion)
MFI [7]: 6 MFI

CD80 R29H/E52G/L70R/E88G/A91G/T130A ECD-Fc (Fc fusion)
MFI [4]: 100 MFI | MFI [7]: 5 MFI | parental ratio [7]: 0.08 | MFI [5]: 119 MFI | parental ratio [5]: 0.57

CD80 A26E/E35D/M47L/L85Q IgV-Fc (effector) (Fc fusion)
Jurkat/IL2 reporter RLU at 50 nM, K562/OKT3/PD-L1 aAPC [1]: 2640 RLU | Jurkat/IL2 reporter RLU at 50 nM, K562/OKT3 aAPC without PD-L1 [1]: 1330 RLU | Jurkat/IL2 reporter RLU at 50 nM, K562/OKT3/PD-L1 aAPC [2]: 2640 RLU

CD80 WT IgV-Fc (Fc fusion)
MFI at 33.3 nM [8]: 95 MFI | MFI at 33.3 nM ([8]; record 2): 41 MFI | MFI at 33.3 nM [9]: 41.2 MFI | MFI at 33.3 nM [10]: 43.9 MFI | MFI at 33.3 nM [11]: 26400 MFI | MFI at 33.3 nM [12]: 44 MFI | MFI at 33.3 nM [13]: 1030 MFI | MFI at 33.3 nM [14]: 83 MFI | MFI at 33.3 nM [15]: 1040 MFI | MFI at 33.3 nM [16]: 70.9 MFI | MFI at 33.3 nM [17]: 1360 MFI | MFI at 33.3 nM [18]: 43.6 MFI | MFI at 33.3 nM [19]: 1920 MFI | MFI at 33.3 nM [20]: 70.3 MFI | MFI at 33.3 nM [21]: 66 MFI

CD80 A91G ECD-Fc (Fc fusion)
MFI [7]: 85 MFI | parental ratio [7]: 1.21 | MFI [5]: 200 MFI

variant CD80 IgV-Fc H18Y/E35D (Fc fusion)
MFI at 33.3 nM [19]: 26300 MFI | MFI at 33.3 nM [20]: 3530 MFI | MFI at 33.3 nM [21]: 479 MFI

CD80 E35D/M43L/L70M IgV-Fc (effector) (Fc fusion)
Jurkat/IL2 reporter RLU at 50 nM, K562/OKT3/PD-L1 aAPC [1]: 2780 RLU | Jurkat/IL2 reporter RLU at 50 nM, K562/OKT3 aAPC without PD-L1 [1]: 1570 RLU | Jurkat/IL2 reporter RLU at 50 nM, K562/OKT3/PD-L1 aAPC [2]: 2780 RLU | IL-2 release, primary T cells + K562/OKT3 (No PD-L1), 100 nM [3]: 10500

CD80 IgV-Fc H18Y/E35D/V68M/L85M/R94Q (Fc fusion)
Fold change to WT CD80 [9]: 23.3 fold | MFI at 33.3 nM [9]: 962 MFI | MFI at 33.3 nM [15]: 22000 MFI | Fold change to WT CD80 [16]: 131 fold | MFI at 33.3 nM [16]: 9280 MFI

variant CD80 IgV-Fc E35D/M38T/M43V/M47V/N48R/L85Q (Fc fusion)
MFI at 33.3 nM [22]: 204000 MFI | MFI at 33.3 nM [23]: 21800 MFI

CD80 E35D/D46V/L85Q IgV-Fc (effector) (Fc fusion)
Jurkat/IL2 reporter RLU at 50 nM, K562/OKT3/PD-L1 aAPC [1]: 4130 RLU | Jurkat/IL2 reporter RLU at 50 nM, K562/OKT3 aAPC without PD-L1 [1]: 7020 RLU | Jurkat/IL2 reporter RLU at 50 nM, K562/OKT3/PD-L1 aAPC [2]: 4130 RLU | IL-2 release, primary T cells + K562/OKT3 (No PD-L1), 100 nM [3]: 25400

variant CD80 IgV-Fc A26E/E35D/M43I/M47L/L85Q/K86E/R94W (Fc fusion)
MFI at 33.3 nM [22]: 2950 MFI | MFI at 33.3 nM [6]: 314 MFI

variant CD80 IgV-Fc E35D/D46V/M47I/A71G/F92V (Fc fusion)
MFI at 33.3 nM [6]: 7540 MFI
